Test results taken from patent US6429304B1, “Nucleic acids encoding a katanin p60 subunit” (The Regents of the University of California, priority 1998, dated 2002).

B1: p80: S. purpuratus katanin p80 subunit, 690 a.a. with six WD40 repeats (SEQ ID NO:2), baculovirus-expressed, His-tagged (protein, listed as Strongylocentrotus purpuratus)
chain: MATKRAWKLQELVAHSSNVNCLALGPMSGRVMVTGGEDKKVNLWAVGKQNCIISLSGHTSPVDSVKFNSSEELVVAGSQSGTMKIYDLEPAKIVRTLTGHRNSIRCMDFHPFGEFVASGSTDTNVKLWDVRRKGCIYTYKGHSDQVNMIKFSPDGKWLVTASEDTTIKLWDLTMGKLFQEFKNHTGGVTGIEFHPNEFLLASGSSDRTVQFWDLETFQLVSSTSPGASAVRSISFHPDGSYLFCSSQDMLHAFGWEPIRCFDTFSVGWGKVADTVIASTQLIGASFNATNVSVYVADLSRMSTTGIAQEPQSQPSKTPSGGAEEVPSKPLTASGRKNFVRERPHTTSSKQRQPDVKSEPERQSPTQDEGVKDDDATDIKDPDSYAKIFSPKTRVDHSPERNAQPFPAPLDVPGAQEPEPFKHPPKPAAAAAVAPVSRAPAPSASDWQPAQANPAPNRVPAATKPVPAQEVAPSRKPDPISTIIPSDRNKPANLDMDAFLPPAHAQQAPRVNAPASRKQSDSERIEGLRKGHDSMCQVLSSRHRNLDVVRAIWTAGDAKTSVESVVNMKDQAILVDILNIMLLKKSLWNLDMCVVVLPRLKELLSSKYENYVHTSCACLKLILKNFTSLFNQNIKCPPSGIDITREERYNKCSKCYSYLIATRGYVEEKQHVSGKLGSSFRELHLLLDQLE
modifications: His tag; katanin p80 subunit
B2: p60: S. purpuratus katanin p60 subunit, 516 a.a. AAA ATPase (SEQ ID NO:1), baculovirus-expressed with N-terminal His(6) tag (protein, listed as Strongylocentrotus purpuratus)
chain: MSVDEICENTKMGREYALLGNYETSLVYYQGVLQQIQKLLTSVHEPQRKHQWQTIRQELSQEYEHVKNITKTLNGFKSEPAAPEPAPNHRAAPFSHHQHAAKPAAAEPARDPDVWPPPTPVDHRPSPPYQRAARKDPPRRSEPSKPANRAPGNDRGGRGPSDRRGDARSGGGGRGGARGSDKDKNRGGKSDKDKKAPSGEEGDEKKFDPAGYDKDLVENLERDIVQRNPNVHWADIAGLTEAKRLLEEAVVLPLWMPDYFKGIRRPWKGVLMVGPPGTGKTMLAKAVATECGTTFFNVSSASLTSKYHGESEKLVRLLFEMARFYAPSTIFIDEIDSICSKRGTGSEHEASRRVKSELLIQMDGVSGPSAGEESSKMVMVLAATNFPWDIDEALRRRLEKRIYIPLPEIDGREQLLRINLKEVPLADDIDLKSIAEKMDGYSGADITNVCRDASMMAMRRRIQGLRPEEIRHIPKEELNQPSTPADFLLALQKVSKSVGKEDLVKYMAWMEEFGSV
modifications: N-terminal His6 tag; katanin p60 subunit
B3: p60/p80: co-expressed recombinant katanin p60/p80 heterodimer complex from baculovirus-infected insect cells (protein)
chain 1: HHHHHHMSVDEICENTKMGREYALLGNYETSLVYYQGVLQQIQKLLTSVHEPQRKHQWQTIRQELSQEYEHVKNITKTLNGFKSEPAAPEPAPNHRAAPFSHHQHAAKPAAAEPARDPDVWPPPTPVDHRPSPPYQRAARKDPPRRSEPSKPANRAPGNDRGGRGPSDRRGDARSGGGGRGGARGSDKDKNRGGKSDKDKKAPSGEEGDEKKFDPAGYDKDLVENLERDIVQRNPNVHWADIAGLTEAKRLLEEAVVLPLWMPDYFKGIRRPWKGVLMVGPPGTGKTMLAKAVATECGTTFFNVSSASLTSKYHGESEKLVRLLFEMARFYAPSTIFIDEIDSICSKRGTGSEHEASRRVKSELLIQMDGVSGPSAGEESSKMVMVLAATNFPWDIDEALRRRLEKRIYIPLPEIDGREQLLRINLKEVPLADDIDLKSIAEKMDGYSGADITNVCRDASMMAMRRRIQGLRPEEIRHIPKEELNQPSTPADFLLALQKVSKSVGKEDLVKYMAWMEEFGSV
chain 2: HHHHHHMATKRAWKLQELVAHSSNVNCLALGPMSGRVMVTGGEDKKVNLWAVGKQNCIISLSGHTSPVDSVKFNSSEELVVAGSQSGTMKIYDLEPAKIVRTLTGHRNSIRCMDFHPFGEFVASGSTDTNVKLWDVRRKGCIYTYKGHSDQVNMIKFSPDGKWLVTASEDTTIKLWDLTMGKLFQEFKNHTGGVTGIEFHPNEFLLASGSSDRTVQFWDLETFQLVSSTSPGASAVRSISFHPDGSYLFCSSQDMLHAFGWEPIRCFDTFSVGWGKVADTVIASTQLIGASFNATNVSVYVADLSRMSTTGIAQEPQSQPSKTPSGGAEEVPSKPLTASGRKNFVRERPHTTSSKQRQPDVKSEPERQSPTQDEGVKDDDATDIKDPDSYAKIFSPKTRVDHSPERNAQPFPAPLDVPGAQEPEPFKHPPKPAAAAAVAPVSRAPAPSASDWQPAQANPAPNRVPAATKPVPAQEVAPSRKPDPISTIIPSDRNKPANLDMDAFLPPAHAQQAPRVNAPASRKQSDSERIEGLRKGHDSMCQVLSSRHRNLDVVRAIWTAGDAKTSVESVVNMKDQAILVDILNIMLLKKSLWNLDMCVVVLPRLKELLSSKYENYVHTSCACLKLILKNFTSLFNQNIKCPPSGIDITREERYNKCSKCYSYLIATRGYVEEKQHVSGKLGSSFRELHLLLDQLE
B4: Katanin: heterodimer of 60 kDa and 80 kDa subunits, microtubule-severing ATPase from sea urchin eggs (protein)
chain 1: B3 chain 1
chain 2: B3 chain 2

Legend:
[1] = ATPase assay (modified malachite green method); type: biochemical; conditions: for ATPase activity (in words): baculovirus-expressed subunit alone; for microtubule concentration at peak stimulation of ATP turnover: non-hyperbolic, decreases at higher microtubule concentrations
Protocol: ATPase activity was measured by a modified malachite green method (Kodama et al. (1986) J. Biochem. 99: 1465-1472). ATPase reactions of 50-100 μl were carried out in a buffer previously used for measuring the ATPase activity of native katanin [20 mM K-HEPES pH 8.0, 25 mM potassium glutamate 2 mM MgCl2, 10% glycerol (v/v), 0.02% Triton X-100 (w/v), 1 mg/ml BSA] (McNally and Vale (1993) Cell, 75: 419-429), except that soybean trypsin inhibitor (SBTI) was replaced by BSA as a carrier protein because SBTI increased background phosphate contamination. An ATP regenerating system, consisting of 0.5-1.0 mM phosphoenol pyruvate and 2 units of pyruvate kinase, was included to minimize the inhibition by ADP observed previously for native katanin (McNally and Vale (1993) Cell, 75: 419-429). Microtubules were prepared from bovine brain tubulin (Hyman et al. (1990) Meth. Enzymol. 196: 303-319; and Williams and Lee (1982) Meth Enzymol. 85B: 376-385). After assembly, microtubules were sedimented (230,000×g; 10 min), resuspended in ATPase buffer lacking BSA, and the polymers were resuspended by repeated passage through a 27 gauge needle. Microtubule concentration was determined by measuring the absorbance at 275 nm in 6 M guanidine HCl by using a molecular mass of 110 kDa and an extinction coefficient of 1.03 ml mg^−1 cm^−1 (Hackney (1988) Proc. Natl. Acad Sci. USA, 85: 6314-6318). ATPase reactions were carried out at room temperature, and were initiated by addition of katanin.

[2] = test system: Taxol-stabilized, rhodamine-labeled microtubules; experiment: Microscope-based microtubule severing assay; type: biochemical; conditions: for microtubule severing (in words): p60, p60/p80 0.1 μM, p80 0.5 μM (5-fold higher); for time until microtubules were completely disassembled: 0.1 μM protein, 1 mM ATP
Protocol: FIGS. 5A, 5B, and 5C illustrate the activities of recombinant katanin subunits. […] Taxol-stabilized, rhodamine-labeled microtubules were adsorbed onto the surface of a microscope perfusion chamber, and then recombinant katanin subunits were introduced. The time elapsed after perfusing p60/p80 (0.1 μM), p60 (0.1 μM), or p80 (0.5 μM) is shown. The recombinant co-expressed p60/p80 and p60, but not p80, can sever and disassemble microtubules. Scale bar, 10 μm.
Microscope-based severing assays were performed using previously published procedures (McNally and Vale (1993) Cell, 75: 419-429), except that microtubules were immobilized by first perfusing flow cells with a bacterially expressed kinesin mutant that binds strongly to microtubules but is unable to hydrolyze ATP (K560, G234A mutant; R. Vale and E. Taylor, unpublished results). Assays were performed in 20 mM Hepes (pH 7.5), 2 mM MgCl2, 1 mM ATP with an oxygen scavenger system consisting of glucose oxidase (220 μg/ml), catalase (36 μg/ml), glucose (22.5 mM), and 2-mercaptoethanol (71.5 mM). Images were captured using a cooled, slow-scan CCD (Photometerics) and processed using Adobe Photoshop.

[3] = test system: DAPI-labeled microtubules; experiment: DAPI fluorescence microtubule disassembly (severing) assay; type: biochemical, bovine; conditions: 2 μM microtubules
From the text: To better compare the microtubule severing activities of p60 and p60/p80, we developed a quantitative microtubule disassembly assay based upon a previous finding that DAPI fluorescence intensity is higher when this dye is bound to polymerized versus free tubulin (Heusele et al. (1987) Eur. J Biochem. 165: 613-620). […] This slower rate of microtubule disassembly is consistent with the previously described 2-fold decrease in ATPase activity of p60 compared with p60/p80.
ATPase activity was measured by a modified malachite green method (Kodama et al. (1986) J. Biochem. 99: 1465-1472). […] Microtubule concentration was determined by measuring the absorbance at 275 nm in 6 M guanidine HCl by using a molecular mass of 110 kDa and an extinction coefficient of 1.03 ml mg^−1 cm^−1 (Hackney (1988) Proc. Natl. Acad Sci. USA, 85: 6314-6318). […]
DAPI severing assays were performed using conditions where the change in fluorescence intensity was linear with the amount of tubulin polymer added (Heusele et al. (1987) Eur. J Biochem. 165: 613-620). […] The reaction volume was 80 μL, and fluorescence intensity was measured by exciting at 370 nm. and measuring the emission at 450 mn using a model 8100 fluorimeter (SLM Instruments) in photon counting mode.

Row | Molecule | ATPase activity (in words) [1] | microtubule severing (in words) [2] | change in DAPI fluorescence (in words) [3] | maximal basal and microtubule-stimulated ATPase rates relative to p60/p80 heterodimer ([1]; compared with p60/p80) [fold lower] | microtubule concentration at peak stimulation of ATP turnover [1] [μM tubulin] | time until microtubules were completely disassembled [2] [min] | rate of microtubule disassembly compared with p60/p80 ([3]; 0.2 μM protein) | ATP turnover rate ([1]; basal, without microtubules) [ATP/sec/heterodimer] | stimulation of ATPase activity by microtubules ([1]; maximal stimulation) [fold] | basal ATPase activity ([1]; basal) [ATP/katanin/sec] | maximal microtubule-stimulated ATPase rate ([1]; microtubule-stimulated) [ATP/katanin/sec]
1 | B1 | no detectable ATPase activity | unable to sever microtubules | did not cause a change in fluorescence that was different from that shown for microtubules alone |  |  |  |  |  |  |  | 
2 | B2 | displayed a microtubule-stimulated ATPase activity | severed microtubules |  | 2 | ~2 | 5 | half as active as p60/p80 |  |  |  | 
3 | B3 |  | severed microtubules |  |  | ~2 | 5 |  | 0.3 | ~10 |  | 
4 | B4 |  |  |  |  |  |  |  |  |  | 0.3 | 3
